Reference: PMC12445682 (Nucleic Acids Research, 2025)

B1: P2–OLD H332A (ATPase domain mutant), His-MBP-bdSUMO fusion (enzyme, phage P2, UniProt P13520 1-586, looked up)
chain: MTVRLASVSISNFRSCKSTSAILRPFTALVGYNNAGKSNIILAIKWLLDGSLISESDVYDPTHPVSVEGVIQGITDDTLSLLTEENQQKIAPFIIDGTLTFARRQEFNKETGKAKKSLDVYDGTTWKKNPGGIDGAISNIFPEPIHIPAMSDAVEDSTKCKNTTTIGKILSAIVSEIKQEHEEKFSKNISEIGKYLSHNGENRLESLNKIDSGVNKKVNQFFPDVSVKLHFPTPTLDEIFKSGTLKVFESREDEPVMRDISRFGHGTQRSIQMALIQYLAEIKKENSESKKSNTLIFIDEPELYLHPSAINSVRESLVTLSESGYQVIISTASASMLSAKHAANAIQVCKDSNGTIARKTISEKIEELYKSSSPQLHSAFTLSNSSYLLFSEEVLLVEGKTETNVLYALYKKINGHELNPSKICIVAVDGKGSLFKMSQIINAIGIKTRILADCDFLSNILLTEHKDLLSTECDNLLTALIESINSGELSLNTKVTTFESFKSISSKDFIKICNHEKTQKHIHEIHQKLKDNGIYIWKSGDIEAVYGFGKKQTEWDSLLDCLCDESKDVRAVIKKYDEMEDFIKWI
B2: P2–OLD H332A/E402A (ATPase and Toprim double mutant), His-MBP-bdSUMO fusion (enzyme, phage P2, UniProt P13520 1-586, looked up)
chain: MTVRLASVSISNFRSCKSTSAILRPFTALVGYNNAGKSNIILAIKWLLDGSLISESDVYDPTHPVSVEGVIQGITDDTLSLLTEENQQKIAPFIIDGTLTFARRQEFNKETGKAKKSLDVYDGTTWKKNPGGIDGAISNIFPEPIHIPAMSDAVEDSTKCKNTTTIGKILSAIVSEIKQEHEEKFSKNISEIGKYLSHNGENRLESLNKIDSGVNKKVNQFFPDVSVKLHFPTPTLDEIFKSGTLKVFESREDEPVMRDISRFGHGTQRSIQMALIQYLAEIKKENSESKKSNTLIFIDEPELYLHPSAINSVRESLVTLSESGYQVIISTASASMLSAKHAANAIQVCKDSNGTIARKTISEKIEELYKSSSPQLHSAFTLSNSSYLLFSEEVLLVEGKTATNVLYALYKKINGHELNPSKICIVAVDGKGSLFKMSQIINAIGIKTRILADCDFLSNILLTEHKDLLSTECDNLLTALIESINSGELSLNTKVTTFESFKSISSKDFIKICNHEKTQKHIHEIHQKLKDNGIYIWKSGDIEAVYGFGKKQTEWDSLLDCLCDESKDVRAVIKKYDEMEDFIKWI
B3: P2–OLD E402A (Toprim domain mutant), His-MBP-bdSUMO fusion (enzyme, phage P2, UniProt P13520 1-586, looked up)
chain: MTVRLASVSISNFRSCKSTSAILRPFTALVGYNNAGKSNIILAIKWLLDGSLISESDVYDPTHPVSVEGVIQGITDDTLSLLTEENQQKIAPFIIDGTLTFARRQEFNKETGKAKKSLDVYDGTTWKKNPGGIDGAISNIFPEPIHIPAMSDAVEDSTKCKNTTTIGKILSAIVSEIKQEHEEKFSKNISEIGKYLSHNGENRLESLNKIDSGVNKKVNQFFPDVSVKLHFPTPTLDEIFKSGTLKVFESREDEPVMRDISRFGHGTQRSIQMALIQYLAEIKKENSESKKSNTLIFIDEPELYLHPSAINSVRESLVTLSESGYQVIISTHSASMLSAKHAANAIQVCKDSNGTIARKTISEKIEELYKSSSPQLHSAFTLSNSSYLLFSEEVLLVEGKTATNVLYALYKKINGHELNPSKICIVAVDGKGSLFKMSQIINAIGIKTRILADCDFLSNILLTEHKDLLSTECDNLLTALIESINSGELSLNTKVTTFESFKSISSKDFIKICNHEKTQKHIHEIHQKLKDNGIYIWKSGDIEAVYGFGKKQTEWDSLLDCLCDESKDVRAVIKKYDEMEDFIKWI

Biological target: the molecule itself
Assay: SEC

Binding result, binds:
B1
B2
B3
